Consider 3 molecules from patent US20230192854A1 (SHANGHAI JUNSHI BIOSCIENCES, published 2023).

The target in assay [1] is hBTLA expressed on cells (human, UniProt Q7Z6A9 31-289). As to the kind of experiment: cell-based or functional assay.
Assay [2] concerns the target T1, murine BTLA (murine, UniProt Q7TSA3 30-183, limits assumed).
T1 sequence (looked up): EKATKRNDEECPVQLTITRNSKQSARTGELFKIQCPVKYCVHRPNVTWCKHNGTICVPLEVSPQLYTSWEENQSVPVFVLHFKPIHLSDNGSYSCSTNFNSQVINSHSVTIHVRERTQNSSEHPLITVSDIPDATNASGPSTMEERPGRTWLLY
As to the kind of experiment: OD 450 nm against log ng/mL of antibody (ELISA-type readout as drawn; Example 11 describes a Fortebio/SPR chip assay with BTLA coupled to the chip). For orientation: An ELISA detects its analyte on a solid surface through an enzyme-linked reagent.

In assay [3] the target is T2, human C1q (human, UniProt P02745 23-245; P02746 28-253; P02747 29-245).
T2 construct: also called C1q protein
As to the kind of experiment: C1q binding assay, method not described (Table 18: 'Non-specific binding').

For assay [4], the target named is recombinant human FcγRIIIA (CD16a) V176 (human, UniProt P08637 17-208). As to the kind of experiment: SPR, Biacore T200; Fc receptor captured on anti-His antibody, antibody injected. From the text: (§1) ADCC is initiated when an antibody binds to a cell surface target protein and then links to an Fc γ receptor (FcγR) expressed on effector cells. […] In conjunction with ADCC, CDC is activated when antibodies cross-link the cell surface target and C1q protein, followed by a cascade reaction of complement complex formation and target cell lysis. As a proxy for ADCC and CDC, the detection of antibody binding to FcγR and C1q may serve as basic indicators of ADCC and CDC. Thus, in the present invention, the kinetic binding affinity of monoclonal antibodies for major FcγRs was evaluated using biacore T200 (GE).
(§2) Anti-His antibody (GE) was immobilized on the sensor wafer. Various Fc receptors, including recombinant human FcγRIIIA (CD16a) V176, recombinant human FcγRIIA (CD32a) R167, recombinant human FcγRI (CD64) and recombinant human FcRn were captured, then a series of diluted recombinant human anti-BTLA antibodies (i.e., hu18) were injected, and the binding properties of the interactions were assayed and analyzed. hu18 is an IgG4 subtype, and hu18-IgG1 is an IgG1 subtype that shares the same Fab as hu18 and serves as a positive control.
(SPR reads the build-up and loss of mass on a sensor chip optically.)

Assay [5] concerns the target T3, recombinant human FcγRIIA (CD32a) R167 (human, UniProt P12318 36-218).
T3 sequence (looked up): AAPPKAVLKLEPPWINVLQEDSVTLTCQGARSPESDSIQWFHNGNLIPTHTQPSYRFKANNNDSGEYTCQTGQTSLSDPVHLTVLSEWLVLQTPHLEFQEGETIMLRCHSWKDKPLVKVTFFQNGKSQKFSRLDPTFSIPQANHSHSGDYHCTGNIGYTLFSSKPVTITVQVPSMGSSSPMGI
Described as above.
Excerpt: as §1, §2

The target of assay [6] is recombinant human FcγRI (CD64) (human, UniProt P12314 16-288). The assay is described as above.
Excerpt: as §1, §2

The target of assay [7] is T4, recombinant human FcRn (human, UniProt P55899 24-297; P61769 21-119).
T4 construct: Captured on an anti-His antibody
Described as above.
Excerpt: as §1, §2

Chain of recombinant human FcγRI (CD64) (P12314 16-288 limits assumed): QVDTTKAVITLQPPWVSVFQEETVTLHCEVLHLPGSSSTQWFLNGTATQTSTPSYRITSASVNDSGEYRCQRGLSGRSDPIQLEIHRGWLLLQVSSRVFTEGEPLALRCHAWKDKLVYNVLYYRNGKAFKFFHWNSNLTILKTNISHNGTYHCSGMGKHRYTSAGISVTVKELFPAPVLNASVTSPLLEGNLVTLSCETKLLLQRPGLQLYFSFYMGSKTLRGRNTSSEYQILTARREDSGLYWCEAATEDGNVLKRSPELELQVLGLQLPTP
T4 sequence (P55899 24-297 limits assumed, form in doubt, chain 1 of 2): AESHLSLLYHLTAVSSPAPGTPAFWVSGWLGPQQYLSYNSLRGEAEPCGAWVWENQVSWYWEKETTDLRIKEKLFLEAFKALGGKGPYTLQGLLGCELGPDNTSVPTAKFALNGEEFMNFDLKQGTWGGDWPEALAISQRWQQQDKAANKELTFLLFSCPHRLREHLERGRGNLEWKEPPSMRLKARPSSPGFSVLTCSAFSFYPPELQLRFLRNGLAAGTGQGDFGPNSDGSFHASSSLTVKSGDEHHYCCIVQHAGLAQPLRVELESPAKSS
T4 sequence (P61769 21-119 limits assumed, form in doubt, chain 2 of 2): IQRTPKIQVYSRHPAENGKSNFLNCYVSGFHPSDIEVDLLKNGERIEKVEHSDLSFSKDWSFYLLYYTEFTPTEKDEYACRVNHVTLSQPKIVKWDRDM
Chain of recombinant human FcγRIIIA (CD16a) V176 (P08637 17-208 F176V): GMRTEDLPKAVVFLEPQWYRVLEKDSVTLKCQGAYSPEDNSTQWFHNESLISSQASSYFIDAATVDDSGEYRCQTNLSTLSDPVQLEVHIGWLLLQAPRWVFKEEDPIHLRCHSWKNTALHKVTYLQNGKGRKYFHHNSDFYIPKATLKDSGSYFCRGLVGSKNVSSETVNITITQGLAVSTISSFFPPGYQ
T2 sequence (P02745 23-245 limits assumed, chain 1 of 3): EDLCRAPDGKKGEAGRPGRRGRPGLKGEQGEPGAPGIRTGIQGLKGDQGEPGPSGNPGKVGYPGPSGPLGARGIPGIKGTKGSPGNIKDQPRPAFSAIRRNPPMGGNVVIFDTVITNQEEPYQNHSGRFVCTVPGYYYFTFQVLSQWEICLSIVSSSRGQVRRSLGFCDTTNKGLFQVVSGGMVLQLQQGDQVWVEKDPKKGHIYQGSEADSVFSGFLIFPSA
T2 sequence (P02746 28-253 limits assumed, chain 2 of 3): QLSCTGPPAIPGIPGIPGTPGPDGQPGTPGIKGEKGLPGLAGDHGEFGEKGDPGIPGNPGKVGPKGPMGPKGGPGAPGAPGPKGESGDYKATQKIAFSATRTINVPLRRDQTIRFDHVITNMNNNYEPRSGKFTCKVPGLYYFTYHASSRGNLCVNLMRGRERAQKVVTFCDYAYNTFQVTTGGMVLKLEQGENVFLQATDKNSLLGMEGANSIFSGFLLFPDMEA
T2 sequence (P02747 29-245 limits assumed, chain 3 of 3): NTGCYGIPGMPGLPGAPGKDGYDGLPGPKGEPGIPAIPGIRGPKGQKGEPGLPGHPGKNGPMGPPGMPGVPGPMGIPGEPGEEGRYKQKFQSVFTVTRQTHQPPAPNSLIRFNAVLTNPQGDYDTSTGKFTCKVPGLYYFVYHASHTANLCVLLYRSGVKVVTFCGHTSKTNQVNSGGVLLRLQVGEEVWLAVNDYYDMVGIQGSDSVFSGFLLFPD

B1: humanized anti-BTLA antibody hu17 (antibody, V domains shown)
VH: QVQLVQSGAEVKKPGASVKLSCKASGYNFKHTYAHWVRQAPGQGLEWIGRIDPANGNTKYDPKFQGRATMTADTASNTAYLELSSLRSEDTAVYYCVADHYGSSLLDYWGQGTLVTVSS
VL: DIVMTQTPLSLSVTPGQPASISCKSSQSLLDSDGKTYLNWFQQRPGQSPRRLIYLVSKLDSGVPDRFSGSGSGTDFTLKISRVEAEDVGVYYCWQGTYFPYTFGQGTKLEIK
notes: Called a full humanized antibody; also called hul7; hull
For B1, in assay [1], the “EC50 (ng/mL); NFAT-luciferase luminescence of Jurkat hPD-1/hBTLA report cells co-cultured with CHO cells expressing hPD-L1/hHVEM” value (“EC50 (ng/mL)” below) is 257 ng/mL. In addition, the binding result in assay [2] is given as “no binding (tested: 1000 ng/mL (log 3))”.

B2: humanized anti-BTLA antibody hu19 (antibody, V domains shown)
VH: QVQLVQSGAEVKKPGASVKLSCKASGYNFKHTYAHWVRQAPGQGLEWIGRIDPANGNTKYDPKFQGRATMTADTASNTAYLELSSLRSEDTAVYYCVADHYGSSLLDYWGQGTLVTVSS
VL: DIVMTQTPLSLSVTPGQPASISCKSSQSLLDSDGKTYLNWFQQRPGQSPRRLMHLVSKLDSGVPDRFSGSGSGTDFTLKISRVEAEDVGVYYCWQGTYFPYTFGQGTKLEIK
Consider B2, for which the “EC50 (ng/mL)” value in assay [1] amounted to 290 ng/mL.

B3: recombinant humanized anti-BTLA monoclonal antibody hu18 (antibody, human IgG4 S228P, kappa)
heavy: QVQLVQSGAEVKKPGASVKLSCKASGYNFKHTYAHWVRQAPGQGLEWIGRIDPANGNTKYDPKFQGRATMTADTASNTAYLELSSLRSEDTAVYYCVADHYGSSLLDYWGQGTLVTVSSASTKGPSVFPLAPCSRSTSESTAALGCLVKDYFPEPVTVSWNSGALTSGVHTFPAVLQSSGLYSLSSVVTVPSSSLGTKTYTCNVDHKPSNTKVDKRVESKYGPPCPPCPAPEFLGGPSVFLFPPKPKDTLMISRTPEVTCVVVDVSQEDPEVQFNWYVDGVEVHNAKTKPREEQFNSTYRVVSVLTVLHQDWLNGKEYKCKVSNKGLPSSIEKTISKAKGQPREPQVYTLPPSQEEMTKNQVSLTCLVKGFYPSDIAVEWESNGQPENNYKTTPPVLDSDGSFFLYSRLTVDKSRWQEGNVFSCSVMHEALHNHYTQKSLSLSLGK
light: DVVMTQTPLSLSVTPGQPASISCKSSQSLLDSDGKTYLNWFQQRPGQSPRRLIYLVSKLDSGVPDRFSGSGSGTDFTLKISRVEAEDVGVYYCWQGTYFPYTFGQGTKLEIKRTVAAPSVFIFPPSDEQLKSGTASVVCLLNNFYPREAKVQWKVDNALQSGNSQESVTEQDSKDSTYSLSSTLTLSKADYEKHKVYACEVTHQGLSSPVTKSFNRGEC
notes: also called recombinant human anti-BTLA antibody of the IgG4 subtype
A word on the Kd: it is the free concentration of one partner at which half of the binding sites on the other are occupied at equilibrium, for simple one-to-one binding. As usually defined, the koff is a measure of how fast the partners let go of each other. The kon is the rate constant with which the complex forms. B3: in assay [1], the “EC50 (ng/mL)” value came out at 277 ng/mL. Also, the binding result in assay [3] is recorded as “no binding”. In addition, in assay [4], the Kd stood at 60.2 µM and the “fold weaker interaction than the control antibody of the IgG1 subtype (hu18-IgG1)” value was found to be 400 fold. Further, the Kd in assay [5] amounted to 40.6 µM. For the same molecule, in assay [6], the Kd is 0.0184 µM, the koff worked out at 0.00387 s⁻¹ and the on-rate constant (kon) was 210000 M⁻¹ s⁻¹. For the same molecule, in assay [7], the Kd is 0.138 µM, the off-rate (koff) is 0.0708 s⁻¹ and the kon is 512000 M⁻¹ s⁻¹.
